Data published in US20210238298A1 (ALLIGATOR BIOSCIENCE, published 2021).

T1: Human OX40 (R&D systems, #3358_OX) (human, UniProt P43489 29-216)
T1 construct: Bought; Several catalogue numbers are given for it; also called human OX40 (R&D Systems, 3388-OX); OX40-Fc (R&D systems, #3358_OX); not shown: Fc part
T1 sequence: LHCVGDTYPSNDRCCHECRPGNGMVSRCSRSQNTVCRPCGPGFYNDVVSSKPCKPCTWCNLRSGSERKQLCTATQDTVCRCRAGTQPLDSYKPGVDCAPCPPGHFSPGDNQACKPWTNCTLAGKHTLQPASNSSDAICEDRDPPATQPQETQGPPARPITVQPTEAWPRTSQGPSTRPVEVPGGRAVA

B1: 1526/1527-1204/1205 (bispecific antibody, human IgG1, kappa)
heavy chain fused to scFv (VH1-Hc-linker-VH2/VL2): not shown
light chain (VL1-Lc): DIQMTQSPSSLSASVGDRVTITCRASQSISSYLNWYQQKPGKAPKLLIYAASSLQSGVPSRFSGSGSGTDFTLTISSLQPEDFATYYCQQYGSDSLLTFGQGTKLEIKRTVAAPSVFIFPPSDEQLKSGTASVVCLLNNFYPREAKVQWKVDNALQSGNSQESVTEQDSKDSTYSLSSTLTLSKADYEKHKVYACEVTHQGLSSPVTKSFNRGEC
notes: OX40 x CD137 bispecific antibody, scFv-IgG format
B2: CD86 mutant 1040 (ligand)
chain: APLKIQAYFNETADLPCQFANSQNLSLSELVVFWQDQENLVLNEVYLGKERFDSVDSKYMGRTSFDSDSWTLRLHNLQIKDKGRYQCIIHHKKPTGMINIHQMNSELSVLA
notes: Variant of the CD86 extracellular domain
B3: anti-CD137 antibody 1620/1621 (antibody, IgG1, V domains shown)
VH: EVQLLESGGGLVQPGGSLRLSCAASGFTFSGYYMYWVRQAPGKGLEWVSGISSSGSYTYYADSVKGRFTISRDNSKNTLYLQMNSLRAEDTAVYYCARSVGPYFDYWGQGTLVTVSS
VL: DIQMTQSPSSLSASVGDRVTITCRASQSISSYLNWYQQKPGKAPKLLIYAASSLQSGVPSRFSGSGSGTDFTLTISSLQPEDFATYYCQQGVGPYTFGQGTKLEIK
notes: Produced as IgG
B4: anti-CD137 antibody 1204/1205 (antibody, IgG1, V domains shown)
VH: EVQLLESGGGLVQPGGSLRLSCAASGFTFSSYYMGWVRQAPGKGLEWVSGIGSYYGYTGYADSVKGRFTISRDNSKNTLYLQMNSLRAEDTAVYYCARAYYDYNYYYAYFDYWGQGTLVTVSS
VL: DIQMTQSPSSLSASVGDRVTITCRASQSISSYLNWYQQKPGKAPKLLIYAASSLQSGVPSRFSGSGSGTDFTLTISSLQPEDFATYYCQQSVPHYPFTFGQGTKLEIK
notes: Produced as IgG; also called 1204-bio
B5: anti-CD137 antibody 1626/1627 (antibody, IgG1, V domains shown)
VH: EVQLLESGGGLVQPGGSLRLSCAASGFTFGGYSMYWVRQAPGKGLEWVSSIGGYYYSTYYADSVKGRFTISRDNSKNTLYLQMNSLRAEDTAVYYCARSYYGSIDYWGQGTLVTVSS
VL: DIQMTQSPSSLSASVGDRVTITCRASQSISSYLNWYQQKPGKAPKLLIYAASSLQSGVPSRFSGSGSGTDFTLTISSLQPEDFATYYCQQGTGYGPLTFGQGTKLEIK
notes: Produced as IgG; also called 1626-bio
B6: bispecific molecule 1170/1263 (OX40 x CTLA-4) (bispecific antibody, human IgG1, kappa)
heavy: not shown
light: DIQMTQSPSSLSASVGDRVTITCRASQSISSYLNWYQQKPGKAPKLLIYAASSLQSGVPSRFSGSGSGTDFTLTISSLQPEDFATYYCQQGHGSYPHTFGQGTKLEIKRTVAAPSVFIFPPSDEQLKSGTASVVCLLNNFYPREAKVQWKVDNALQSGNSQESVTEQDSKDSTYSLSSTLTLSKADYEKHKVYACEVTHQGLSSPVTKSFNRGECSGGGGSGGGGSAPLKIQAYFNETADLPCQFANSQNLSLSELVVFWQDQENLVLNEVYLGKERFDSVDSKYMGRTSFDSDSWTLRLHNLQIKDKGRYQCIIHHKKPTGMINIHQMNSELSVLA
B7: bispecific molecule 1526/1585 (OX40 x CTLA-4) (bispecific antibody, human IgG1, kappa)
heavy: not shown
light: DIQMTQSPSSLSASVGDRVTITCRASQSISSYLNWYQQKPGKAPKLLIYAASSLQSGVPSRFSGSGSGTDFTLTISSLQPEDFATYYCQQYGSDSLLTFGQGTKLEIKRTVAAPSVFIFPPSDEQLKSGTASVVCLLNNFYPREAKVQWKVDNALQSGNSQESVTEQDSKDSTYSLSSTLTLSKADYEKHKVYACEVTHQGLSSPVTKSFNRGECSGGGGSGGGGSAPLKIQAYFNETADLPCQFANSQNLSLSELVVFWQDQENLVLNEVYLGKERFDSVDSKYMGRTSFDSDSWTLRLHNLQIKDKGRYQCIIHHKKPTGMINIHQMNSELSVLA

Key:
[1] = target: T1, Human OX40 (R&D systems, #3358_OX); experiment: dual ELISA: OX40-Fc coated, bispecific antibody in dilutions, biotinylated CD137-Fc (1 ug/ml), HRP-streptavidin; the signal needs both bindings at once
[2] = target: T2, CTLA4-Fc (Fitzgerald, #30R-CD152) (human, UniProt P16410 38-152); experiment: SPR (Biacore), immobilised CTLA4-Fc
T2 construct: Bought; also called human CTLA-4 (Fitzgerald); biotinylated-CTLA4; not shown: Fc part of the bought fusion, not described
Procedure: Either CTLA4-Fc (Fitzgerald, #30R-CD152) or CD28-Fc (R&D Systems, 342-CD) was immobilized to the Biacore™ sensor chip, CM5, using conventional amine coupling. The CD86 mutant molecules and controls (serially diluted ½ 100-1.5 nM) were analyzed for binding in HBS-P (GE, BR-1003-68) at a flow rate of […]. The association was followed for 3 minutes and the dissociation for 10 minutes. Regeneration was performed twice using 5 mM NaOH for 30 seconds. The kinetic parameters and the affinity constants were calculated using BIAevaluation 4.1 software (Table 1.3).

[3] = target: T2, CTLA4-Fc (Fitzgerald, #30R-CD152); experiment: inhibition ELISA; the best IC50 of Table 1.2 is that of 1040
Procedure: The sample (CD86 mutant or wild type protein; serially diluted ¼ from 30000 to 0.3 ng/ml) was incubated with biotinylated-CTLA4 (Fitzgerald, #30R-CD152) in room temperature 1 h, the mixture was then added to the blocked wells in the ELISA plate. Detection was performed with Streptavidin-HRP (Pierce, #21126) and the plates were subsequently developed using SuperSignal Pico Chemiluminescent substrate (Thermo Scientific, #37069) and detected with Envision reader (Perkin Elmer). […] Kd binding ratio=[Kd for CD28]÷[Kd for CTLA-4].

[4] = target: T3, CD40 (Ancell) (UniProt P25942 21-193); experiment: ELISA, coated CD40-Fc
T3 construct: also called CD40-Fc (Ancell #504-820); not shown: Fc part, not described
Procedure: (§1) ELISA plates (Greiner #655074) were coated with 50 μl/well of recombinant human OX40 (R&D #1493-CD), CD40-Fc (Ancell #504-820) or CD137 (R&D #838-4B) diluted to a final concentration of 0.5 μg/ml in PBS for 1 h at 37° C. or overnight at 4° C. Plates were washed with PBS+0.05% TWEEN20 (PBST), followed by block with PBST+1% bovine serum albumin (BSA). Antibody samples were prepared as serial 1/10 dilutions from 10-0.01 μg/ml in PBST+1% BSA and incubated for 1h in room temperature, followed by detection using a horse radish peroxidase-conjugated anti-human kappa light chain antibody (AbD Serotec #STAR127P) and developed using SuperSignal ELISA Pico Chemiluminescent substrate (Pierce ThermoScientific #37069).

[5] = target: CD137 on primary human CD8+ T cells (human, UniProt Q07011 24-255); experiment: cell-based or functional assay
[6] = target: T1, Human OX40 (R&D systems, #3358_OX); experiment: ELISA, coated recombinant human OX40
Procedure: as §1

[7] = target: T4, CD137 chimera 1554 (1411): human CD137 with mouse domains 3B, 4A and 4B (aa 97-159), on FreeStyle 293-F cells (human; mouse, UniProt P20334 96-159); experiment: flow cytometry, 293-F transfectants
T4 construct: domain: 3B, 4A and 4B

[8] = target: T5, CD137 chimera 1555 (1412): human CD137 with mouse domains 1 and 4B and region of unknown function (aa 24-46 … (human; mouse, UniProt P20334 24-45; P20334 139-185); experiment: flow cytometry, 293-F transfectants
T5 construct: domain: 1;domain: 4B and region of unknown function

[9] = target: T6, CTLA-4 (BMS, Orencia) (human, UniProt P16410 38-152); experiment: cell-based or functional assay
[10] = target: T6, CTLA-4 (BMS, Orencia); experiment: cell-based or functional assay; remark: listed apart in the source

CD137 on primary human CD8+ T cells, sequence (Q07011 24-255 limits assumed): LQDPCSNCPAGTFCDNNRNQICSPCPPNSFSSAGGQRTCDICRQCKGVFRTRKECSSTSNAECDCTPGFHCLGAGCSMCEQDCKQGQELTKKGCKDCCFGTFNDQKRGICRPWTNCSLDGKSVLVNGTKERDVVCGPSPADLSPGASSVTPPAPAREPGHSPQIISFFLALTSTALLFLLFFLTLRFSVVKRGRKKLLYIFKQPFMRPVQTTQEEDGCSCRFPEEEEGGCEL
T3 sequence (P25942 21-193 limits assumed): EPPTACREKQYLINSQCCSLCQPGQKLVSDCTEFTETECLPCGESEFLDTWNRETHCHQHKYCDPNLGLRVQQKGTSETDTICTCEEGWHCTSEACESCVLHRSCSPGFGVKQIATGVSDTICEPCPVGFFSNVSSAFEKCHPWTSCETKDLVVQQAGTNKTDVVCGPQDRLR
T2 sequence (P16410 38-152 limits assumed): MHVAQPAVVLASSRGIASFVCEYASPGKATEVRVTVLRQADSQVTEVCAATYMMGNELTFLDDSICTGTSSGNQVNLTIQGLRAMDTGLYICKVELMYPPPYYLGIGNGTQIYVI
T6 sequence (P16410 38-152 limits assumed): as above
T4 sequence (P20334 other isoform, or with tags, fused parts or gaps mutant limits assumed): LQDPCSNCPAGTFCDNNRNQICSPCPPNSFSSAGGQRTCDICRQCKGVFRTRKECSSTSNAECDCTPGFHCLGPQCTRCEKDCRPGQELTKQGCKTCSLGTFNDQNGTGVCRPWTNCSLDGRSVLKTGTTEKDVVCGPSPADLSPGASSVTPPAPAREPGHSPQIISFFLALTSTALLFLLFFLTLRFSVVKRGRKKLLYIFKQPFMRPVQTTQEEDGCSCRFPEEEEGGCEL
T5 sequence (P20334 other isoform, or with tags, fused parts or gaps mutant limits assumed): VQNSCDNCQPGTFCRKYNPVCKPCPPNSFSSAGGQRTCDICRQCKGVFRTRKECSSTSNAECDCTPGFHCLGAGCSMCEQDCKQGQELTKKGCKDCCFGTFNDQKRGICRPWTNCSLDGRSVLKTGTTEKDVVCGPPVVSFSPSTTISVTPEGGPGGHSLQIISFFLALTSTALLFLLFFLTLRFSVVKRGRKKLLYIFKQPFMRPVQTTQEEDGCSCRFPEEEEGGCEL

| Binder | binding result [4] | Max IFN-γ [5] [pg/mL] | Mean IFN-γ [5] [pg/mL] | Min IFN-γ [5] [pg/mL] | binding result [6] | further results |
| --- | --- | --- | --- | --- | --- | --- |
| B1 | – | – | – | – | – | binding result [1]: binds |
| B2 | – | – | – | – | – | Kd [2]: 3 nM; koff [2]: 0.0032 s⁻¹; kon [2]: 1e+06 M⁻¹ s⁻¹; fold improvement of IC50 compared to wild type [3]: > 100 fold |
| B3 | no binding (tested: 10 µg/ml) | 123000 | 52400 | 7730 | no binding (tested: 10 µg/ml) | – |
| B4 | no binding (tested: 10 µg/ml) | 153000 | 64400 | 13100 | no binding (tested: 10 µg/ml) | relative binding (MFI sample/isotype control, normalised to full-length human CD137) [7]: 0.73; relative binding (MFI sample/isotype control, normalised to full-length human CD137) [8]: 0.28 |
| B5 | no binding (tested: 10 µg/ml) | 32200 | 15100 | 4160 | no binding (tested: 10 µg/ml) | – |
| B6 | – | – | – | – | – | Fold change in IL-2 level induced by bispecific molecule compared to the corresponding combination of the monospecific molecules at 1.5 nM [9]: 4.7 fold; Mean IL-2 level (pg/ml) induced at 1.5 nM [10]: 2580 pg/mL |
| B7 | – | – | – | – | – | Mean IL-2 level (pg/ml) induced at 1.5 nM [10]: 3200 pg/mL |
